In patent US20240052055A1:

How the values were obtained:
[1] = target: human GPC3 on cells (HepG2 endogenous; CHO-K1 recombinant clones CHOK1-hGPC3.1C3, 2B5, 3E9) (human) (UniProt P51654); assay: FACS on HepG2 cells
[2] = target: human GPC3 on cells (HepG2 endogenous; CHO-K1 recombinant clones CHOK1-hGPC3.1C3, 2B5, 3E9) (human) (UniProt P51654); assay: FACS on HepG2 cells; remark: listed apart in the source
[3] = target: human GPC3 (Gln25-His559)-His protein (Acro, Cat. No. GP3-H52H4) (human) (UniProt P51654); assay: ELISA; antibody 1 nM
[4] = target: monkey GPC3-His protein (Acro, Cat. No. GP3-05225) (monkey) (UniProt A5A6P7); assay: ELISA; antibody 1 nM
Chain of UniProt A5A6P7 (A5A6P7 other isoform, or with tags, fused parts or gaps limits assumed): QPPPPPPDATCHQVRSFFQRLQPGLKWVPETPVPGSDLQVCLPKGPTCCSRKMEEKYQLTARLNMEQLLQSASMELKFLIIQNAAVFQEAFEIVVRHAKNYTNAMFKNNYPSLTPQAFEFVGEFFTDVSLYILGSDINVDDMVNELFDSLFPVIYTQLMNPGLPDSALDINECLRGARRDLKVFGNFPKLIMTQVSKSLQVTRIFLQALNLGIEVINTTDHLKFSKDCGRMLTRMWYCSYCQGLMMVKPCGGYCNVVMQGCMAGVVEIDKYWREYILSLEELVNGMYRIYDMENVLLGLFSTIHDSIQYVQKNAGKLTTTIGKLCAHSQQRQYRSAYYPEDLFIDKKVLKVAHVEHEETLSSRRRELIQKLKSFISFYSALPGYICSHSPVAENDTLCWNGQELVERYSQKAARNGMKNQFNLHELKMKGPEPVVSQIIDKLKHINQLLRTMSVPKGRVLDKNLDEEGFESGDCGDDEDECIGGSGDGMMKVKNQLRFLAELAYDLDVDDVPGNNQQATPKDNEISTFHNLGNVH

[5] = target: mouse GPC3-His protein (Sino Biological, Cat. No. 50989-M08B) (mouse) (UniProt Q8CFZ4); assay: ELISA; antibody 1 nM
Chain of UniProt Q8CFZ4 (Q8CFZ4 25-558 limits assumed): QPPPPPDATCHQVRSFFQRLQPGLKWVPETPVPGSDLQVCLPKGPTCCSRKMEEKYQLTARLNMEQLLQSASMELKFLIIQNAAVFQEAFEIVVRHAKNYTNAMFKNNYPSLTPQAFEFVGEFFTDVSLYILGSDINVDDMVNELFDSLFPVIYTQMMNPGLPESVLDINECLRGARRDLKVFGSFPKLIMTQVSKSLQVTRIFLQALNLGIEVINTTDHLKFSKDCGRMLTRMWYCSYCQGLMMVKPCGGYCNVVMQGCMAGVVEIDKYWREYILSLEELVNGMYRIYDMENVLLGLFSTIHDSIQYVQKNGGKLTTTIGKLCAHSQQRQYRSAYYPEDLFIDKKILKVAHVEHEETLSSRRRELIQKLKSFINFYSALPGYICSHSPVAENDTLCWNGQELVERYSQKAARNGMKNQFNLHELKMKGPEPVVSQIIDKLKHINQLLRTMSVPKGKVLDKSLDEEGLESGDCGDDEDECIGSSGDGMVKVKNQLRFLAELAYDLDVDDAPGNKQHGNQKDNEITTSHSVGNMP

[6] = target: human GPC3 (Gln25-His559)-His protein (Acro, Cat. No. GP3-H52H4) (human) (UniProt P51654); assay: ELISA; antibody 1 nM; remark: listed apart in the source
[7] = target: human GPC3 (Gln25-His559)-His protein (Acro, Cat. No. GP3-H52H4) (human) (UniProt P51654); assay: ELISA; antibody 10 nM
[8] = target: monkey GPC3-His protein (Acro, Cat. No. GP3-05225) (monkey) (UniProt A5A6P7); assay: ELISA; antibody 10 nM
[9] = target: mouse GPC3-His protein (Sino Biological, Cat. No. 50989-M08B) (mouse) (UniProt Q8CFZ4); assay: ELISA; antibody 10 nM
[10] = target: human GPC3 (Gln25-His559)-His protein (Acro, Cat. No. GP3-H52H4) (human) (UniProt P51654); assay: ELISA; antibody 10 nM; remark: listed apart in the source
[11] = target: human GPC3 (Gln25-His559)-His protein (Acro, Cat. No. GP3-H52H4) (human) (UniProt P51654); assay: ELISA; antibody 0.1 nM
[12] = target: human GPC3 (Gln25-His559)-His protein (Acro, Cat. No. GP3-H52H4) (human) (UniProt P51654); assay: ELISA; antibody 100 nM
[13] = target: monkey GPC3-His protein (Acro, Cat. No. GP3-05225) (monkey) (UniProt A5A6P7); assay: ELISA; antibody 100 nM
[14] = target: mouse GPC3-His protein (Sino Biological, Cat. No. 50989-M08B) (mouse) (UniProt Q8CFZ4); assay: ELISA; antibody 100 nM
[15] = target: human GPC3 (Gln25-His559)-His protein (Acro, Cat. No. GP3-H52H4) (human) (UniProt P51654); assay: ELISA; antibody 0.1 nM; remark: listed apart in the source
[16] = target: monkey GPC3-His protein (Acro, Cat. No. GP3-05225) (monkey) (UniProt A5A6P7); assay: ELISA; antibody 0.1 nM
[17] = target: human GPC3 (Gln25-His559)-His protein (Acro, Cat. No. GP3-H52H4) (human) (UniProt P51654); assay: ELISA; antibody 100 nM; remark: listed apart in the source
[18] = target: human GPC3 (Gln25-His559)-His protein (Acro, Cat. No. GP3-H52H4) (human) (UniProt P51654); assay: ELISA; antibody 0.01 nM
[19] = target: human GPC3 (Gln25-His559)-His protein (Acro, Cat. No. GP3-H52H4) (human) (UniProt P51654); assay: ELISA; antibody 0.01 nM; remark: listed apart in the source
[20] = target: mouse GPC3-His protein (Sino Biological, Cat. No. 50989-M08B) (mouse) (UniProt Q8CFZ4); assay: ELISA; antibody 0.01 nM
[21] = target: human GPC3 (Gln25-His559)-His protein (Acro, Cat. No. GP3-H52H4) (human) (UniProt P51654); assay: ELISA; antibody 0.001 nM
[22] = target: human GPC3 (Gln25-His559)-His protein (Acro, Cat. No. GP3-H52H4) (human) (UniProt P51654); assay: ELISA; antibody 0.001 nM; remark: listed apart in the source
[23] = target: monkey GPC3-His protein (Acro, Cat. No. GP3-05225) (monkey) (UniProt A5A6P7); assay: ELISA; antibody 0.001 nM
[24] = target: mouse GPC3-His protein (Sino Biological, Cat. No. 50989-M08B) (mouse) (UniProt Q8CFZ4); assay: ELISA; antibody 0.001 nM
[25] = target: human GPC3 (Gln25-His559)-His protein (Acro, Cat. No. GP3-H52H4) (human) (UniProt P51654); assay: ELISA; antibody 0.0001 nM
[26] = target: human GPC3 (Gln25-His559)-His protein (Acro, Cat. No. GP3-H52H4) (human) (UniProt P51654); assay: ELISA; antibody 0.0001 nM; remark: listed apart in the source
[27] = target: monkey GPC3-His protein (Acro, Cat. No. GP3-05225) (monkey) (UniProt A5A6P7); assay: ELISA; antibody 0.0001 nM
[28] = target: mouse GPC3-His protein (Sino Biological, Cat. No. 50989-M08B) (mouse) (UniProt Q8CFZ4); assay: ELISA; antibody 0.0001 nM
[29] = target: human GPC3 on cells (HepG2 endogenous; CHO-K1 recombinant clones CHOK1-hGPC3.1C3, 2B5, 3E9) (human) (UniProt P51654); assay: FACS on CHOK1-hGPC3.1C3 cells
[30] = target: human GPC3 on cells (HepG2 endogenous; CHO-K1 recombinant clones CHOK1-hGPC3.1C3, 2B5, 3E9) (human) (UniProt P51654); assay: FACS on CHOK1-hGPC3.2B5 cells
[31] = target: human GPC3 on cells (HepG2 endogenous; CHO-K1 recombinant clones CHOK1-hGPC3.1C3, 2B5, 3E9) (human) (UniProt P51654); assay: FACS on CHOK1-hGPC3.3E9 cells
[32] = target: human GPC3 on cells (HepG2 endogenous; CHO-K1 recombinant clones CHOK1-hGPC3.1C3, 2B5, 3E9) (human) (UniProt P51654); assay: FACS on CHO-K1-human GPC3 cells
[33] = target: monkey GPC3 on HEK293T cells (monkey); assay: FACS on HEK293T-monkey GPC3 cells
Chain of monkey GPC3 on HEK293T cells (monkey) (chain, as listed by the source limits assumed): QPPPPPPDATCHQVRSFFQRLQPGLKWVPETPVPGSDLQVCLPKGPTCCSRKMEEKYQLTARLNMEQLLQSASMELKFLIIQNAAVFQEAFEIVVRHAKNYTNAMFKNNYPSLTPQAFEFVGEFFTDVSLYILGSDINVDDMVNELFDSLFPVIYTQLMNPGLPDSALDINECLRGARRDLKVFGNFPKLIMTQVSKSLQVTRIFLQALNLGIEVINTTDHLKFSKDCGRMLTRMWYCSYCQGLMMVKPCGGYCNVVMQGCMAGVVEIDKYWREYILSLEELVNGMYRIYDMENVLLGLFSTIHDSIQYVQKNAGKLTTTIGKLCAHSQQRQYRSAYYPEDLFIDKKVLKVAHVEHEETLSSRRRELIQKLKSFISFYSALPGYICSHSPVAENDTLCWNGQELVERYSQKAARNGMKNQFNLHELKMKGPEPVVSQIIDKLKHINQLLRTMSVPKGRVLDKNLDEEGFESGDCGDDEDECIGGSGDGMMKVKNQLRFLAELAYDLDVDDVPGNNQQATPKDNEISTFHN

Max MFI [1]: 155
Max MFI [2]: 124
OD450 [3]: 0.048
OD450 [4]: 0.044
OD450 [5]: 0.05
OD450 [6]: 0.06
OD450 [7]: 0.05
OD450 [8]: 0.047
OD450 [9]: 0.055
OD450 [10]: 0.1
OD450 [11]: 0.05
OD450 [12]: 0.072
OD450 [13]: 0.056
OD450 [14]: 0.105
OD450 [15]: 0.06
OD450 [16]: 0.045
OD450 [17]: 0.44
OD450 [18]: 0.048
OD450 [19]: 0.06
OD450 [20]: 0.052
OD450 [21]: 0.048
OD450 [22]: 0.06
OD450 [23]: 0.044
OD450 [24]: 0.051
OD450 [25]: 0.047
OD450 [26]: 0.06
OD450 [27]: 0.048
OD450 [28]: 0.049
Mean fluorescence density of cells [29]: 19.3
Mean fluorescence density of cells [30]: 19.3
Mean fluorescence density of cells [31]: 19.3
Max MFI [32]: 88
Max MFI [33]: 107
Substance: human IgG1 (IgG subtype control) (antibody)
